Reference: patent publication US12383631
pKd: −log10 of the molar value. Like-named read-outs stand apart in the source and are kept apart here.

Columns and labels:
[1] = target: recombinant Human Fc gamma RIIIA/CD16a Protein (R&D systems, 4325-FC-050) (human) (UniProt P08637); experiment: ELISA; immunocytokine coated, receptor titrated, anti-His-HRP
[2] = target: T1, IL-18 receptor (IL-18Rα/IL-18Rβ) on cells (HEK-Blue IL18R reporter cells, NK-92, KG-1) (human) (UniProt Q13478); experiment: cell-based or functional assay
T1 sequence (looked up) 1: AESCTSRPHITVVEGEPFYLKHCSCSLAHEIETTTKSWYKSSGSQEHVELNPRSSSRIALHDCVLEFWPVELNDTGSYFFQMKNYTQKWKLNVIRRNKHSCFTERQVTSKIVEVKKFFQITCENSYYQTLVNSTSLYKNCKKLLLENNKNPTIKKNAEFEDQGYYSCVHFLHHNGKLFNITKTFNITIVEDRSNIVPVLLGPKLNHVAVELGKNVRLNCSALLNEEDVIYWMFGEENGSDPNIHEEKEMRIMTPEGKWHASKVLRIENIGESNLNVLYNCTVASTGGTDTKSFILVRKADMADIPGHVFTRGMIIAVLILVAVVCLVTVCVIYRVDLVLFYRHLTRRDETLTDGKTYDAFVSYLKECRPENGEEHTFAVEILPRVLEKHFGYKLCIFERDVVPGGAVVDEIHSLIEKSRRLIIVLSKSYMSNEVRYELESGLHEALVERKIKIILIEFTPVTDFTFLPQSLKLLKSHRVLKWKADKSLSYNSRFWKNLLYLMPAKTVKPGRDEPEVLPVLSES
T1 sequence (looked up) 2: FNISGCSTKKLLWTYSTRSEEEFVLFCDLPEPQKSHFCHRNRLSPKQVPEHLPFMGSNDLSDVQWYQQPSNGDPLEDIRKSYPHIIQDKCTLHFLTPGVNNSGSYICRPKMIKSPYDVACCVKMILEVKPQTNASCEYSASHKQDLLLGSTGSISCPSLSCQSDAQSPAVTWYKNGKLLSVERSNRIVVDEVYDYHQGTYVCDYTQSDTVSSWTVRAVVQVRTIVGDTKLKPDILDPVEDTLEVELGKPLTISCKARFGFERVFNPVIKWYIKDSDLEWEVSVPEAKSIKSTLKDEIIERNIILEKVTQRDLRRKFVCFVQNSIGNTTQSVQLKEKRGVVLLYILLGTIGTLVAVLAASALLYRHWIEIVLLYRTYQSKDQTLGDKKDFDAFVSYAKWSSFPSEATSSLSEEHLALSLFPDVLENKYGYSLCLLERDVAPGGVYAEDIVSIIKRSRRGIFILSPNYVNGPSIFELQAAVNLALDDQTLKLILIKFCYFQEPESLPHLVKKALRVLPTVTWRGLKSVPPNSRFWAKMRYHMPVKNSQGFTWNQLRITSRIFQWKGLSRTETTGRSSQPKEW

[3] = target: human IL-18BP-His (human) (UniProt O95998); experiment: AlphaLISA of free IL-18BP after incubation with IL-18BP-His
[4] = target: human IL-18BP-His (human) (UniProt O95998); experiment: AlphaLISA of free (unbound) IL-18BP: immunocytokine titrated (x-axis) and pre-incubated with human IL-18BP-His; anti-IL-18BP acceptor beads, biotinylated anti-IL-18BP antibody, streptavidin donor beads; the signal falls as IL-18BP is bound
[5] = target: recombinant Human Fc gamma RIIA/CD32a (H167) Protein (R&D systems, 9595-CD-050) (human) (UniProt P12318); experiment: ELISA; immunocytokine coated, receptor titrated, anti-His-HRP
[6] = target: recombinant Human Fc gamma RI/CD64 Protein (R&D systems, 1257-FC-050) (human) (UniProt P12314); experiment: as above
[7] = target: recombinant Human Fc gamma RIIB/CD32b Avi-tag Protein (R&D systems, AVI1875-050) (human) (UniProt P31994); experiment: as above
[8] = target: human PD-1 on Jurkat T effector cells (human) (UniProt Q15116)
[9] = target: recombinant Human Fc gamma RI/CD64 Protein (R&D systems, 1257-FC-050) (human) (UniProt P12314); experiment: ELISA: immunocytokine coated on the plate (2.5 ug/ml), His-tagged recombinant human Fc gamma RI/CD64 titrated in solution (x-axis), anti-His-HRP/TMB, 450 nm
[10] = target: recombinant Human Fc gamma RI/CD64 Protein (R&D systems, 1257-FC-050) (human) (UniProt P12314); experiment: ELISA: antibody coated on the plate (2.5 ug/ml), His-tagged recombinant human Fc gamma RI/CD64 titrated in solution (x-axis), anti-His-HRP/TMB, 450 nm
[11] = target: recombinant Human Fc gamma RIIA/CD32a (H167) Protein (R&D systems, 9595-CD-050) (human) (UniProt P12318); experiment: ELISA; antibody coated, receptor titrated, anti-His-HRP
[12] = target: recombinant Human Fc gamma RIIIA/CD16a Protein (R&D systems, 4325-FC-050) (human) (UniProt P08637); experiment: as above
[13] = target: recombinant Human Fc gamma RI/CD64 Protein (R&D systems, 1257-FC-050) (human) (UniProt P12314); experiment: as above
[14] = target: recombinant Human Fc gamma RIIB/CD32b Avi-tag Protein (R&D systems, AVI1875-050) (human) (UniProt P31994); experiment: as above
[15] = target: recombinant biotinylated human FcRn (human) (UniProt P55899); experiment: AlphaLISA competition at pH 6; competitor: human IgG on acceptor beads
[16] = target: human PD-1 on Jurkat T effector cells (human) (UniProt Q15116); remark: listed apart in the source
[17] = target: recombinant biotinylated human FcRn (human) (UniProt P55899); experiment: FcRn competition AlphaLISA at pH 6: test antibody titrated (x-axis) against human IgG-coated acceptor beads (reference IgG) for biotinylated human FcRn on streptavidin donor beads; loss of signal

Sequence of recombinant Human Fc gamma RIIIA/CD16a Protein (R&D systems, 4325-FC-050) (human) (P08637 17-208 limits assumed): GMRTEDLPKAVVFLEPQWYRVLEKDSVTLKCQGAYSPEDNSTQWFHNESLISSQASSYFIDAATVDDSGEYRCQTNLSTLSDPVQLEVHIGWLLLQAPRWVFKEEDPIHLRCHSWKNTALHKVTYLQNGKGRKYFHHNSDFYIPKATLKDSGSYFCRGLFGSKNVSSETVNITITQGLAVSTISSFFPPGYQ
Sequence of recombinant Human Fc gamma RI/CD64 Protein (R&D systems, 1257-FC-050) (human) (P12314 16-288 limits assumed): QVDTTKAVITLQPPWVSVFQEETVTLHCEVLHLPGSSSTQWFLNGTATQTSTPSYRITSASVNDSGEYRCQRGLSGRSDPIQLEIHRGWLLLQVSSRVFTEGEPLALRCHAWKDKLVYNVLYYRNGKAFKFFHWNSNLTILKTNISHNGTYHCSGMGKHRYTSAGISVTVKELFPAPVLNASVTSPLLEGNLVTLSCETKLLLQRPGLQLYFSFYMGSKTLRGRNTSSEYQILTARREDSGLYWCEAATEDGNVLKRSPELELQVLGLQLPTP
Sequence of human PD-1 on Jurkat T effector cells (human) (Q15116 25-288 limits assumed): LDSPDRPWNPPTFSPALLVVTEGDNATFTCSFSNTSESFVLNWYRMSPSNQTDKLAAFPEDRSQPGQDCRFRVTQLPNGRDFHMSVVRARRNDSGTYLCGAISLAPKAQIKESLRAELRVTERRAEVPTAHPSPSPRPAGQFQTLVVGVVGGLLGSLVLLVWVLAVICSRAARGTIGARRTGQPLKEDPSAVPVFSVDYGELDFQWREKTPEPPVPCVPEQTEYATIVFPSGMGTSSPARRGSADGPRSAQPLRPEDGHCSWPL
Sequence of recombinant Human Fc gamma RIIB/CD32b Avi-tag Protein (R&D systems, AVI1875-050) (human) (P31994 46-217 limits assumed): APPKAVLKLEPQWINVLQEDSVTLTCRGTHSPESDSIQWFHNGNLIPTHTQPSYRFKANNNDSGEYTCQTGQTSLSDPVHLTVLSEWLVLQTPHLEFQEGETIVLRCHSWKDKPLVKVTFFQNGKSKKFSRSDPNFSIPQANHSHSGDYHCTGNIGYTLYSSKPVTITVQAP
Sequence of human IL-18BP-His (human) (O95998 31-194 limits assumed): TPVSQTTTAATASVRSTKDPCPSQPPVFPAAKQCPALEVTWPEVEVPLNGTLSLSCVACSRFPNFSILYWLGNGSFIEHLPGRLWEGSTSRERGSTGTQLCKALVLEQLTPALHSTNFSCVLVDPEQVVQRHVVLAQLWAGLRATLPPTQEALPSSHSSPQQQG
Sequence of recombinant biotinylated human FcRn (human) (P55899 24-297 limits assumed, form in doubt, chain 1 of 2): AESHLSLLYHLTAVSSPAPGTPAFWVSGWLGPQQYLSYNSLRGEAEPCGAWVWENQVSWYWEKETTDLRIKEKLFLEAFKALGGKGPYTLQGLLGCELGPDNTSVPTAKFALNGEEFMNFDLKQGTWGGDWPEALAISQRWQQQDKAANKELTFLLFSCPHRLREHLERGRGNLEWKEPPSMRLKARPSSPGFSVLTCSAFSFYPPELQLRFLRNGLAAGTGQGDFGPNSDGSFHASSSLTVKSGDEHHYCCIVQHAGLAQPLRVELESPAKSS
Sequence of recombinant biotinylated human FcRn (human) (chain, as listed by the source limits assumed, form in doubt, chain 2 of 2): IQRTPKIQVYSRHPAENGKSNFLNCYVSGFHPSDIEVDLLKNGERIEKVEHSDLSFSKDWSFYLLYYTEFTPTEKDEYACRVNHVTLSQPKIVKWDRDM
Sequence of recombinant Human Fc gamma RIIA/CD32a (H167) Protein (R&D systems, 9595-CD-050) (human) (P12318 36-218 limits assumed): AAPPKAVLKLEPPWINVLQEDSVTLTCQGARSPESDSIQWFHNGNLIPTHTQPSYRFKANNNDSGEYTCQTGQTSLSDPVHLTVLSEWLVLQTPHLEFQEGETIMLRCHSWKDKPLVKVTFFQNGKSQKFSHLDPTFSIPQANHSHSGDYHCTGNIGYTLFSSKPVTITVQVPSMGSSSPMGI
Sequence of LZM-009 (antibody) (VH): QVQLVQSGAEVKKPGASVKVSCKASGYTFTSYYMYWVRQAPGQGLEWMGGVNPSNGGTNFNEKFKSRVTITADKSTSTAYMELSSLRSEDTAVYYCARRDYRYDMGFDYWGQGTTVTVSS
Sequence of LZM-009 (antibody) (VL): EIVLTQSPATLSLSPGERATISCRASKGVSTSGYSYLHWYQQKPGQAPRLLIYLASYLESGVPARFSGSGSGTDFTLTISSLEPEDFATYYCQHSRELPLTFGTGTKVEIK

Substance | pKd [1] | EC50, IFNγ secretion, NK92 cells [2] | EC50, IFNγ secretion, PD-1 positive KG-1 cells [2] | EC50, IFNγ secretion, parental KG-1 cells [2] | pKd [3] | IC50 (read off the curve) [4] | pKd [5] | pKd [6] | pKd [7] | EC50 (read off the curve), NFAT-RE luciferase signal (PD-1/PD-L1 Blockade Bioassay) [8] | EC50 (read off the curve) [9] | EC50 (read off the curve) [10] | pKd [11] | pKd [12] | pKd [13] | pKd [14] | pKd [15] | EC50 (read off the curve), NFAT-RE luciferase signal (PD-1/PD-L1 Blockade Bioassay) [16] | IC50 (read off the curve) [17]
Composition C (Trastuzumab/Herceptin conjugated to IL-18 polypeptide of SEQ ID NO: 30) | 5.48 | 0.027 nM | 0.0096 nM | 0.0166 nM | 7.98 | 10 nM | – | – | – | – | – | – | – | – | – | – | – | – | –
Composition A (LZM-009 conjugated to IL-18 polypeptide of SEQ ID NO: 30) (from UniProt Q14116 37-193) | 6.22 | 0.073 nM | 0.0012 nM | 0.011 nM | – | – | 5.72 | 9.60 | 6.36 | 3 nM | 0.3 nM | – | – | – | – | – | – | – | –
LZM-009 (antibody) | – | – | – | – | – | – | – | – | – | – | – | 0.2 nM | 5.87 | 5.77 | 9.50 | 5.58 | 8.22 | 2 nM | 5 nM
